{"source": "patent US20240270818A1", "about": "(PETMEDIX, published 2024)", "binders": {"B1": {"name": "Bedinvetmab (antibody, INN chains, looked up, V domains shown)", "VH": "EVQLVESGGDLVKPGGSLRLSCVASGFTFSSHGMHWVRQSPGKGLQWVAVINSGGSSTYYTDAVKGRFTISRDNAKNTVYLQMNSLRAEDTAMYYCAKESVGGWEQLVGPHFDYWGQGTLVIVSS", "VL": "QSVLTQPTSVSGSLGQRVTISCSGSTNNIGILGASWYQLFPGKAPKLLVYGNGNRPSGVPDRFSGADSGDSVTLTITGLQAEDEADYYCQSFDTTLGAHVFGGGTHLTVL"}, "B2": {"name": "PetML 119-S109Y (canine p75NTR ECD S109Y-canine IgGB wt Fc) (Fc fusion)", "chain": "KEACPTGLYTHSGECCKACNLGEGVAQPCGANQTVCEPCLDSVTFSDVVSATEPCKPCTECVGLQSMSAPCVEADDAVCRCAYGYYQDETTGRCEACRVCEAGSGLVFYCQDRQNTVCEECPDGTYSDEANHVDPCLPCTVCEDTERQLRECTRWADAECEEIPGRGGGGRENGRVPRPPDCPKCPAPEMLGGPSVFIFPPKPKDTLLIARTPEVTCVVVDLDPEDPEVQISWFVDGKQMQTAKTQPREEQFNGTYRVVSVLPIGHQDWLKGKQFTCKVNNKALPSPIERTISKARGQAHQPSVYVLPPSREELSKNTVSLTCLIKDFFPPDIDVEWQSNGQQEPESKYRTTPPQLDEDGSYFLYSKLSVDKSRWQRGDTFICAVMHEALHNHYTQKSLSHSPGK", "notes": "Signal peptide (first 19 residues) left out as for m1"}, "B3": {"name": "PetML 119-D134L (canine p75NTR ECD D134L-canine IgGB wt Fc) (Fc fusion)", "chain": "B2 chain with Y109S, D134L", "notes": "as for B2"}, "B4": {"name": "PetML 119-E75T (canine p75NTR ECD E75T-canine IgGB wt Fc) (Fc fusion)", "chain": "B2 chain with D75T, Y109S", "notes": "as for B2"}, "B5": {"name": "PetML 119-V133R (canine p75NTR ECD V133R-canine IgGB wt Fc) (Fc fusion)", "chain": "B2 chain with Y109S, V133R", "notes": "as for B2"}, "B6": {"name": "PetML 119-S109H (canine p75NTR ECD S109H-canine IgGB wt Fc) (Fc fusion)", "chain": "B2 chain with Y109H", "notes": "Signal peptide left out as for m1; If the listing holds it too, the entry is 425 residues long"}, "B7": {"name": "PetML 119 (canine p75NTR ECD-canine IgGB wt Fc protein fusion) (Fc fusion)", "chain": "KEACPTGLYTHSGECCKACNLGEGVAQPCGANQTVCEPCLDSVTFSDVVSATEPCKPCTECVGLQSMSAPCVEADDAVCRCAYGYYQDETTGRCEACRVCEAGSGLVFSCQDRQNTVCEECPDGTYSDEANHVDPCLPCTVCEDTERQLRECTRWADAECEEIPGGGGRENGRVPRPPDCPKCPAPEMLGGPSVFIFPPKPKDTLLIARTPEVTCVVVDLDPEDPEVQISWFVDGKQMQTAKTQPREEQFNGTYRVVSVLPIGHQDWLKGKQFTCKVNNKALPSPIERTISKARGQAHQPSVYVLPPSREELSKNTVSLTCLIKDFFPPDIDVEWQSNGQQEPESKYRTTPPQLDEDGSYFLYSKLSVDKSRWQRGDTFICAVMHEALHNHYTQKSLSHSPGK", "notes": "The end, 422, is my own count; also called WT molecule"}}, "note": "Residue numbers refer to the chain shown, from its start. Numbers in names are those of the source."}
{"target": "NGF (species not stated at the place) (Homo sapiens (Human)) (UniProt P01138)", "experiment": "cell-based or functional assay", "units": {"Bottom (%), PathHunter TrkA activation assay": "%", "Top (%), PathHunter TrkA activation assay": "%", "TrkA inhibition, PathHunter luminescence": "%"}}
{"binder": "B1", "Bottom (%), PathHunter TrkA activation assay": 5.35, "Top (%), PathHunter TrkA activation assay": 123, "TrkA inhibition, PathHunter luminescence": 100}
{"target": "NGF (species not stated at the place) (Homo sapiens (Human)) (UniProt P01138)", "experiment": "cell-based or functional assay", "remark": "another data set of the same source", "units": {"Bottom (%), PathHunter TrkA activation assay": "%", "Top (%), PathHunter TrkA activation assay": "%"}}
{"binder": "B1", "Bottom (%), PathHunter TrkA activation assay": 2.11, "Top (%), PathHunter TrkA activation assay": 93.5}
{"target": "T1, human Nerve Growth Factor (human, UniProt P01138 122-241)", "T1 sequence (P01138 122-241 limits assumed)": "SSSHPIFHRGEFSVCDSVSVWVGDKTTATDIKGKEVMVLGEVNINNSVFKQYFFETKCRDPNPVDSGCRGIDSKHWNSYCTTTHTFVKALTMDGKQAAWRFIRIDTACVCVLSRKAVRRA", "experiment": "cell-based or functional assay", "units": {"IC50 (nM), inhibition of TF-1 cell proliferation": "nM", "ICMAX (%), inhibition of TF-1 cell proliferation": "%"}}
{"binder": "B2", "IC50 (nM), inhibition of TF-1 cell proliferation": 2.15, "ICMAX (%), inhibition of TF-1 cell proliferation": 93.5}
{"binder": "B3", "IC50 (nM), inhibition of TF-1 cell proliferation": 329, "ICMAX (%), inhibition of TF-1 cell proliferation": 70.5}
{"binder": "B4", "IC50 (nM), inhibition of TF-1 cell proliferation": 18.2, "ICMAX (%), inhibition of TF-1 cell proliferation": 72.5}
{"binder": "B5", "IC50 (nM), inhibition of TF-1 cell proliferation": 5.06, "ICMAX (%), inhibition of TF-1 cell proliferation": 80.5}
{"binder": "B6", "IC50 (nM), inhibition of TF-1 cell proliferation": 0.17, "ICMAX (%), inhibition of TF-1 cell proliferation": 88.5}
{"binder": "B7", "IC50 (nM), inhibition of TF-1 cell proliferation": 4.46, "ICMAX (%), inhibition of TF-1 cell proliferation": 73.1}
{"target": "NGF (species not stated at the place) (Homo sapiens (Human), UniProt P01138 122-241)", "experiment": "cell-based or functional assay", "units": {"Bottom (%), PathHunter TrkA activation assay": "%", "IC50 (nM), PathHunter TrkA activation assay": "nM", "Top (%), PathHunter TrkA activation assay": "%"}}
{"binder": "B2", "Bottom (%), PathHunter TrkA activation assay": 7.79, "IC50 (nM), PathHunter TrkA activation assay": 2.15, "Top (%), PathHunter TrkA activation assay": 87.3}
{"binder": "B3", "Bottom (%), PathHunter TrkA activation assay": 53.7, "IC50 (nM), PathHunter TrkA activation assay": 20.8, "Top (%), PathHunter TrkA activation assay": 82.7}
{"binder": "B4", "Bottom (%), PathHunter TrkA activation assay": 44.5, "IC50 (nM), PathHunter TrkA activation assay": 82.6, "Top (%), PathHunter TrkA activation assay": 72.6}
{"binder": "B5", "Bottom (%), PathHunter TrkA activation assay": 14.3, "IC50 (nM), PathHunter TrkA activation assay": 2.56, "Top (%), PathHunter TrkA activation assay": 49.3}
{"binder": "B6", "Bottom (%), PathHunter TrkA activation assay": 10.3, "IC50 (nM), PathHunter TrkA activation assay": 2.2, "Top (%), PathHunter TrkA activation assay": 48.3}
{"binder": "B7", "Bottom (%), PathHunter TrkA activation assay": 9.5, "IC50 (nM), PathHunter TrkA activation assay": 8.04}
{"target": "T1, human Nerve Growth Factor", "experiment": "SPR (Biacore 8K), fusion captured on Protein A chip", "experimental": "(§1) Binding affinity of fusion proteins to human and rat NGF was assessed using Biacore 8K (Cytiva). Briefly, Protein A Sensor Chip (Cytiva) was docked into Biacore 8K, equilibrated for 30′ at RT and then Running Buffer (10 mM HEPES pH7.4 150 mM NaCl 3 mM EDTA and 0.005% Tween20) was applied to the SPR chip surface.\n(§2) These were immobilised using 90 see association at 10 uL/min as capturing step, followed by injection of running buffer to remove any unbound product.\n(§3) Kinetics were assessed using multi-cycle kinetics with capture step method (30 see association-300 see dissociation) followed by regeneration step (0.1M Glycine pH2.2 contact time 60 see FR 30 uL/min). Kinetics quantification have been performed using Biacore Insight following standard analyses methods.", "units": {"fold reduced affinity relative to PetML 119 wt": "fold"}}
{"binder": "B3", "fold reduced affinity relative to PetML 119 wt": 20}
{"binder": "B4", "fold reduced affinity relative to PetML 119 wt": 40}
{"target": "T2, rat Nerve Growth Factor (rat, UniProt P25427 122-241, limits assumed)", "T2 construct": "Bought recombinant protein; also called rNGF; rat NGF", "T2 sequence (P25427 122-241 limits assumed)": "as the sequence (P01138 122-241 limits assumed) above, with S3T, I6V, R9M, M37T, D60A, D65E, M92T, G94D, V117A, A120G counted along it", "experiment": "SPR (Biacore 8K), fusion captured on Protein A chip", "experimental": "as §1, §2, §3"}
{"binder": "B2", "binding result": "binds"}
{"binder": "B5", "binding result": "binds"}
{"binder": "B6", "binding result": "binds"}
{"binder": "B7", "binding result": "binds"}
{"target": "T1, human Nerve Growth Factor", "experiment": "SPR (Biacore 8K), fusion captured on Protein A chip, hNGF as analyte, multi-cycle kinetics", "experimental": "as §1, §2, §3", "units": {"Kd": "nM"}}
{"binder": "B2", "Kd": 0.225}
{"binder": "B3", "Kd": 6.8}
{"binder": "B4", "Kd": 12.4}
{"binder": "B5", "Kd": 0.346}
{"binder": "B6", "Kd": 0.267}
{"binder": "B7", "Kd": 0.309}
